According to patent US20190315838A1 (MIT, published 2019):

Key:
[1] = target: T1, Zika virus envelope protein, strain MR766-NIID (Uganda 1947) (Zika virus strain MR766-NIID (Uganda …, UniProt Q32ZE1 291-790))
[2] = target: T1, Zika virus envelope protein, strain …; remark: listed apart in the source
[3] = target: T2, Zika virus envelope protein, strain ILM (Brazil Paraiba 2015) (Zika virus strain ILM (Brazil Paraiba …)); assay: cell-based or functional assay
[4] = target: T2, Zika virus envelope protein, strain ILM …
[5] = target: Zika virus envelope protein, strain H/PF/2013 (French Polynesia 2013) (Zika virus strain H/PF/2013 (French …, UniProt A0A024B7W1 291-794)); assay: cell-based or functional assay

B1: mAb 3 (antibody, V domains shown)
VH: EVQLVESGGGLVQPGGSLRLSCSASGFTFSTYSMHWVRQAPGKGLEYVSAITGEGDSAFYADSVKGRFTISRDNSKNTLYFEMNSLRPEDTAVYYCVGGYSNFYYYYTMDVWGQGTTVTVSS
VL: EIVLTQSPATLSLSPGERATLSCRASQSISTFLAWYQHKPGQAPRLLIYDASTRATGVPARFSGSRSGTDFTLTISTLEPEDFAVYYCQQRYNWPPYTFGQGTKVEIK
notes: also called VH.4 / VL.3
For B1, the “EC50 (read off the curve)” value [1] was ~0.8 µg/mL and the Kd [2] was 0.0248 µg/mL.

B2: mAb 6 (antibody, V domains shown)
VH: EVQLVESGGGLVQPGGSLRLSCSASGFSFSTYSMHWVRQAPGKGLEYVSAITGEGDSAFYADSVKGRFTISRDNSKNTLYFEMNSLRPEDTAVYYCVGGYSNFYYYYTMDAWGQGTSVTVSS
VL: EIVLTQSPASLSLSPGERATLSCRATQSISTFLAWYQHKPGQAPRLLIYDASTRASGVPARFSGSRSGTDFTLTISSLEPEDFAVYYCQQRYNWPPYSFGQGTKVEIK
notes: also called VH.3 / VL.1
For B2, the “EC50 (read off the curve)” value [1] was ~0.03 µg/mL, the PRNT50 [3] was 0.0597 µg/mL and the Kd [4] was 3.85 µg/mL.

B3: fusion loop targeting pan-flavivirus antibody 4G2 (antibody, V domains shown)
VH: EVQLQQSGPELVKPGTSVKISCKTSGYTFTEYTIHWVKQSHGKSLAWIGGIDPNSGGTNYSPNFKGKATLTVDKSSSTAYMDLRSLSSEDSAVYFCARIYHYDGYFDVWGAGTAVTVSS
VL: DIKMTQSPSSMYASLGERVTITCKASQDINSYLTWFQQKPGKSPKTLIYRANRLIDGVPSRFSGSGSGQDYSLTISSLDYEDMGIYYCLQYDEFPPTFGGGTKLEIKR
In the case of B3, the Kd [4] is reported as 6.41 µg/mL.

B4: mAb 7 (antibody, V domains shown)
VH: EVQLLESGGGLVQPGGSLRLSCAASGFSFSTYSMHWVRQAPGKGLEWVSAISGEGDSAYYADSVKGRFEISRDNSKNTLYLQMNKVRAEDTAVYYCVGGYSNFYYYYTMDAWGQGTMVTVSS
VL: DIVMTQSPASLSLSPGERATLSCRATQSIVTFLAWYQQKPGQAPRLLIYDASTNASGIPARFSGSRSGTDFTLTITRLEPEDFAVYYCQQRYNWPPYSFGQGTKLEIK
notes: also called VH.2 / VL.4
With B4 the “EC50 (read off the curve)” value [1] was ~0.03 µg/mL, the Kd [4] was 5.21 µg/mL and the Kd [2] was 0.0265 µg/mL.

B5: mAb 8 (antibody, V domains shown)
VH: EVQLLESGGGLVQPGGSLRLSCAASGFSFSTYSMHWVRQAPGKGLEWVSAISGEGDSAYYADSVKGRFTISRDNSKNTLYLQMNKVRAEDTAVYYCVGGYSNFYYYYTMDAWGQGTMVTVSS
VL: DIVMTQSPASLSLSPGERATLSCRATQSISTFLAWYQQKPGQAPRLLIYDASTRASGIPARFSGSRSGTDFTLTITRLEPEDFAVYYCQQRYNWPPYSFGQGTKLEIK
notes: also called VH.1 / VL.2
With B5 the “EC50 (read off the curve)” value [1] was ~0.03 µg/mL, the PRNT50 [3] was 5.12 µg/mL and the “ADE, viral titers at peak enhancement in THP1.2S cells” value [5] was ≥ 3 fold. For the same binder, the PRNT50 [5] was 5.09 µg/mL and the Kd [4] was 19.3 µg/mL.
